Literature values in PMC7252266.

Target: UROD (Homo sapiens) (UniProt P06132)

Kd: 100 nM
Substance: UROD (from UniProt P06132)
